The values below come from PMC6842305 (Journal of medicinal chemistry, 2018).

The target in this assay is Truncated WDR5 (Δ23, residues 22–334) (UniProt P61964 22-334). The assay is described as follows: NMR titration.

For the molecule Ac-ARTEVHLRKS-NH2 [MLL1 10mer peptide Ac-ARTEVHLRKS-NH2], the binding result was “binds”.
